Test [1] addresses T1, Fc tagged human SIRPα v1 ECD recombinant protein (human, UniProt P78324 31-370).
T1 construct: range 1-370; cloned range M1-R370 includes the signal peptide; also called hSIRPα V1; not shown: human IgG Fc region (hFc) of the pCPC vector
The test is described as follows: ELISA.

For test [2], the target named is T2, Fc tagged human SIRPα v2 ECD recombinant protein (human).
T2 construct: range 1-369; cloned range M1-R369 includes the signal peptide; also called hSIRPα V2
The test is described as follows: ELISA. On the technique in general: ELISA stands for enzyme-linked immunosorbent assay.

Test [3] concerns the target T3, Fc tagged human SIRPβ ECD recombinant protein (human, UniProt O00241 30-371).
T3 construct: range 1-371; cloned range includes the signal peptide; also called hSIRPβ; not shown: human IgG Fc region (hFc) of the pCPC vector
The test is described as follows: ELISA.

Test [4] deals with T4, Fc tagged human SIRPγ ECD recombinant protein (human, UniProt Q9P1W8 29-360).
T4 construct: range 1-360; cloned range includes the signal peptide; also called hSIRPγ; not shown: human IgG Fc region (hFc) of the pCPC vector
Nature of the test: ELISA.

Test [5] concerns the target T5, 6×His tagged human SIRPα v8 ECD recombinant protein (human).
T5 construct: extracellular domain; bought; also called hSIRPα V8
The test is described as follows: ELISA.

Test [6] concerns the target T6, 6×His tagged human SIRPα v1 ECD recombinant protein (human, UniProt P78324 31-373).
T6 construct: extracellular domain; bought; also called hSIRPα V1 (SPR antigen)
Nature of the test: SPR (Biacore). In general terms: In SPR one partner is held on a chip, and binding of the other changes the refractive index at the surface.

Test [7] deals with T7, full length human SIRPα v1 stably expressed on CHOK1 cells (human, UniProt P78324 31-504).
T7 construct: whole, on cells; also called CHOK1-human SIRPα v1-1B4 cells; CHOK1-human SIRPα v1
The test is described as follows: FACS on CHOK1 cells. On the procedure:
(§1) Species cross reactivity of the purified hybridoma antibodies against human, cyno and mouse SIRPα was determined by FACS assay using CHOK1-human SIRPα v1-1B4 cells, CHOK1-cyno SIRPα-2A2 cells, and CHOK1-C57BL/6 mouse SIRPα-2.22 cells, which stably expressing SIRPα protein. Briefly the antibodies were incubated with 2×10⁵ target cells at 4° C. for 1 hour. After washing, fluorescence labeled anti-mouse or anti-human IgG 2nd antibody (Life Technologies) was added and incubated at 4° C. for 1 hour. Geometric median fluorescence intensity was detected and EC₅₀ was calculated. In particular, it is noted, in contrast to the other antibodies tested in the same experiment, 060 cannot bind with cyno SIRPα and 035 has cross reactivity against C57BL/6 mouse SIRPα.

Test [8] deals with T8, full length cyno SIRPα stably expressed on CHOK1 cells (cynomolgus monkey, UniProt A0A2K5VYQ9 31-507).
T8 construct: whole, on cells; also called CHOK1-cyno SIRPα-2A2 cells; CHOK1-cyno SIRPα
T8 sequence: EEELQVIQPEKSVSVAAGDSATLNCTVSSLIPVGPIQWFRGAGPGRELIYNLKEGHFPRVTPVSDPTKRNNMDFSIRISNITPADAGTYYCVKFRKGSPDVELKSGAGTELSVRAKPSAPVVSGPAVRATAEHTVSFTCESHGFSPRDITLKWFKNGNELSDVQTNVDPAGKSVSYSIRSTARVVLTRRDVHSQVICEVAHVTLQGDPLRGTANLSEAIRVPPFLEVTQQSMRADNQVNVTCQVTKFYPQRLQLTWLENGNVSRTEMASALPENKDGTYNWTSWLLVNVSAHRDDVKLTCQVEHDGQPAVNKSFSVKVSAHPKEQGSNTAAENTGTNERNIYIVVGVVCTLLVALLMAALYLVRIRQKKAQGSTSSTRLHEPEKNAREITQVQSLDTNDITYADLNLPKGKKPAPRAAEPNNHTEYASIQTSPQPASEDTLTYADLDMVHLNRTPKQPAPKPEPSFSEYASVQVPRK
Nature of the test: FACS on CHOK1 cells. On the procedure: as §1

Test [9] has as its target T9, full length C57BL/6 mouse SIRPα stably expressed on CHOK1 cells (mouse (C57BL/6), UniProt P97797 32-513).
T9 construct: whole, on cells; also called CHOK1-C57BL/6 mouse SIRPα-2.22 cells
T9 sequence (looked up): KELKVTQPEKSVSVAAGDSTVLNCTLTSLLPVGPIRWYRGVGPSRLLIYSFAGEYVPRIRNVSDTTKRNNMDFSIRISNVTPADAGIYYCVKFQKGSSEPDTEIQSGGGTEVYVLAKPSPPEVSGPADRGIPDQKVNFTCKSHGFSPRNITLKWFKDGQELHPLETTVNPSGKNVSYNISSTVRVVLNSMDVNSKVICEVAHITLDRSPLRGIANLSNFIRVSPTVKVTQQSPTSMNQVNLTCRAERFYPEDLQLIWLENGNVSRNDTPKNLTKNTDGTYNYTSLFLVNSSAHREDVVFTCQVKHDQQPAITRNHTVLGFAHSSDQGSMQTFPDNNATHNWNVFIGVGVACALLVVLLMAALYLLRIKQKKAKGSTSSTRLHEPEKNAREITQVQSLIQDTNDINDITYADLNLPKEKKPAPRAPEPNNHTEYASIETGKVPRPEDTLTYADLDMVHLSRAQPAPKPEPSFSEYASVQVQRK
The test is described as follows: FACS on CHOK1 cells. On the procedure: as §1

The target of test [10] is T6, 6×His tagged human SIRPα v1 ECD …. Nature of the test: SPR (Biacore), antibody captured. On the procedure: Anti-SIRPα chimeric antibodies were characterized for binding affinity against human SIRPα v1, human SIRPα v2 and C57BL/6 mouse SIRPα using Biacore (GE). Briefly the antibodies to be tested were captured to CM5 chip (GE) using Human Antibody Capture Kit (GE). The antigens of 6×His tagged human SIRPα v1, human SIRPα v2 and C57BL/6 mouse SIRPα ECD recombinant proteins were serially diluted for multiple doses and injected at 30 μl/min for 180 s. Buffer flow was maintained for dissociation of 400 s. 3 M MgCl₂ was used for chip regeneration. The association and dissociation curves were fit with 1:1 binding model, and the Ka/Kd/KD values for each antibody were calculated.

For test [11], the target named is T10, biotin labeled soluble human SIRPα v1 ECD recombinant protein (human, UniProt P78324 31-373, biotin labeled).
T10 construct: extracellular domain
Nature of the test: competitive ELISA, hSIRPα/CD47 blocking.

Test [12] deals with T1, Fc tagged human SIRPα v1 ECD …. The test is described as follows: ELISA. On the procedure:
(§2) Binding specificity of the purified hybridoma antibodies against SIRP family members was detected by ELISA assay using recombinant proteins of Fc tagged human SIRPα v1 ECD, human SIRPα v2 ECD, human SIRPβ ECD and human SIRPγ ECD. Briefly the antibodies were incubated with ELISA microplate coated antigens at 37° C. for 1 hour. After washing, horseradish peroxidase (HRP) labeled anti-mouse or anti-human IgG 2nd Ab (Sigma) was added and incubated at 37° C. for 1 hour. Then, 100 μl/well of TMB solution (Biotechnology) was added. After incubation for 15 minutes at room temperature, the reaction was stopped by the addition of 50 μl of 1N HCl. OD 450 nm was read and EC₅₀ was calculated. Other than 060 and HEFLB, all of the antibodies as tested can bind with both human SIRPα v1 and SIRPα v2. 060 and HEFLB can bind with human SIRPα v1 but not v2. Other than 055, all of the antibodies as tested can bind with human SIRPβ. In comparison with other known anti-SIRPα antibodies, only 022, 035 and 050 can bind with human SIRPγ weakly.
The source holds these as a separate data set.

Test [13] deals with T2, Fc tagged human SIRPα v2 ECD …. The test is described as follows: ELISA. On the procedure: as §2
This is another data set of the same source.

The target of test [14] is T10, biotin labeled soluble human SIRPα v1 …. The test is described as follows: competitive ELISA; competitor 001. On the procedure:
(§3) Competitive ELISA assay was used for epitope binning of 9 functional antibodies. Briefly excessive competitor antibody and biotin labeled soluble human SIRPα v1 ECD recombinant protein were co-incubated with ELISA microplate coated antibody. After washing, HRP-SA was added and incubated at 37° C. for 1 hour. Then, […] of TMB solution (Biotechnology) was added. After incubation for 15 minutes at room temperature, the reaction was stopped by the addition of […] of 1N HCl. OD 450 nm was read. Competition ratio was calculated. The antibodies that can compete each other for binding to SIRPα have the similar binding epitope.

For test [15] the target is unchanged. The test is described as follows: competitive ELISA; competitor 002. On the procedure:
as §3

Test [16] shares this target. Nature of the test: competitive ELISA; competitor 022. On the procedure:
as §3

Test [17] shares this target. The test is described as follows: competitive ELISA; competitor 032. On the procedure: as §3
The target is the same in test [18]. Nature of the test: competitive ELISA; competitor 035. On the procedure: as §3
Test [19] shares this target. Nature of the test: competitive ELISA; competitor 050. On the procedure:
as §3

Test [20] has the same target. Nature of the test: competitive ELISA; competitor 055. On the procedure:
as §3

For test [21] the target is unchanged. The test is described as follows: competitive ELISA; competitor 060. On the procedure:
as §3

Test [22] shares this target. The test is described as follows: competitive ELISA; competitor 074. On the procedure:
as §3

The target is the same in test [23]. Nature of the test: competitive ELISA; competitor HEFLB. On the procedure: as §3
The target is the same in test [24]. Nature of the test: competitive ELISA; competitor KWAR23. On the procedure: as §3
Test [25] has the same target. Nature of the test: competitive ELISA; competitor 29-AM4-5. On the procedure:
as §3

Read-outs that look alike come from different tables or passages of the source.

Two molecules from patent publication US20210347908A1 (ELPISCIENCE SUZHOU BIOPHARMA, published 2021) can be followed below.

T6 sequence (P78324 other isoform, or with tags, fused parts or gaps): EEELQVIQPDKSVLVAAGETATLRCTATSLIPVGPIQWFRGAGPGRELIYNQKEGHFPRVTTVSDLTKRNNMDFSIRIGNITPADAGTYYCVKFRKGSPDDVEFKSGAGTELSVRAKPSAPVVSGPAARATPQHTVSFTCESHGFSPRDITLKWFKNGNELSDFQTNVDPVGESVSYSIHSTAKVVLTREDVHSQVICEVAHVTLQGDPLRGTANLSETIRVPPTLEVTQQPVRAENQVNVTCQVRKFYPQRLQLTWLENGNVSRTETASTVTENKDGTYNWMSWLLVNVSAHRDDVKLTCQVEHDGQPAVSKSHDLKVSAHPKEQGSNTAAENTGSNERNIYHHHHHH
T10 sequence (P78324 31-373): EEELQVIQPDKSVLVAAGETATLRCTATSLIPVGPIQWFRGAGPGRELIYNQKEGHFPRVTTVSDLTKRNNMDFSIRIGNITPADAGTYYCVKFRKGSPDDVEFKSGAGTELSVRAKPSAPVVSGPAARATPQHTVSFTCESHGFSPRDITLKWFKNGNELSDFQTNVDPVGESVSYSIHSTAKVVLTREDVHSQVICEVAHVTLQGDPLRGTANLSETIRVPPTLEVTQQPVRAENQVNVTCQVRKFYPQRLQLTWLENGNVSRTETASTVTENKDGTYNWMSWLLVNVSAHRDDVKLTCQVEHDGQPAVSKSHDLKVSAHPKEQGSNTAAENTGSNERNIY
T1 sequence (P78324 31-370 limits assumed): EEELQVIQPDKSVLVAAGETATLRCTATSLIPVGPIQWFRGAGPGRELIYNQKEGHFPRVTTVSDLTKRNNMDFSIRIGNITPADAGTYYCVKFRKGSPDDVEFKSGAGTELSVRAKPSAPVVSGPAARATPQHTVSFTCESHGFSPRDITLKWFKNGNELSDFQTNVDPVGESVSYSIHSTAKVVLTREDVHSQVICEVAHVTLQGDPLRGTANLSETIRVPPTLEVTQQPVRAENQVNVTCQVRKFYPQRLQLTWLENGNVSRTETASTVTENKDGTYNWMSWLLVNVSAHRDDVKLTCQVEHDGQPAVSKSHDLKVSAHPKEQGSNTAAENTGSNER
T4 sequence (Q9P1W8 29-360 limits assumed, form in doubt): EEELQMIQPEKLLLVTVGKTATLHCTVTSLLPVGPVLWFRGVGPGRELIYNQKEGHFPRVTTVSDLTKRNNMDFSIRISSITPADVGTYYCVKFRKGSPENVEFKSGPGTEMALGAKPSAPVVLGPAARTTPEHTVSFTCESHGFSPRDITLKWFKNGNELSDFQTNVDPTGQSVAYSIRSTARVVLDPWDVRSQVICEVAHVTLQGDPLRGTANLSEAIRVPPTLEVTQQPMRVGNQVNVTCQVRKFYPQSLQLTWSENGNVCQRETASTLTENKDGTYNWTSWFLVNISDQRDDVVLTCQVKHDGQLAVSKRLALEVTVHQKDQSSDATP
T3 sequence (O00241 30-371 limits assumed, form in doubt): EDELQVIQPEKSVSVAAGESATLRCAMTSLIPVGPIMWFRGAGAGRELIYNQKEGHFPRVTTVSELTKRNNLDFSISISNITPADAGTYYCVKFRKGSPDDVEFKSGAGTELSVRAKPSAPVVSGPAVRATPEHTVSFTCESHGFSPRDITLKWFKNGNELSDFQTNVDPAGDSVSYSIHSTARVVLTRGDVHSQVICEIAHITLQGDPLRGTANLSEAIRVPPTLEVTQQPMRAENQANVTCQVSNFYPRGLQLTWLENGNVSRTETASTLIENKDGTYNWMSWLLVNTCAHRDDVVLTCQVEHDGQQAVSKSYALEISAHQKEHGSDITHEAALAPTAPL

B1: humanized antibody hu035.02 (antibody, V domains shown)
VH: QIQLVQSGSELKKPGASVKVSCRARGYTLTDYAMNWVRQAPGQGLEWMGFINTYTGEPTYAQGFKGRFVFSLDTSVSTAYLQIGSLKAEDTAVYYCARTRGYYDFDGGAFDYWGQGTLVTVSS
VL: DIQMTQSPSSLSASVGDRVTITCRASQNVGTHLAWYQQKPGKAPKSLIYSASYRYIGVPSRFSGSGSGTDFTLTISSLQPEDFATYYCQQYNTYPLTFGQGTKLEIK
What is called EC50 is the concentration that produces a half-maximal response. One may read the Kd as the concentration at which binding is half-saturated. For orientation: koff means the first-order rate constant of dissociation. As a reminder, the kon is the second-order rate constant of association. As a reminder, the IC50 is the point on the concentration scale where inhibition reaches its midpoint. On to B1, for which the EC50 in [1] came to 0.16 nM; in test [2] it was 0.16 nM; in [3], 0.2 nM; in test [4], 6.24 nM; in [5] it was 0.23 nM; in [7], 0.97 nM. In [8], this molecule showed an EC50 of 0.29 nM. Further, the Kd in test [6] and in test [10] was 1.64 nM each time. The “MFI at 2 ug/ml” value in test [9] was 549 MFI. Also, the off-rate constant (koff) in test [10] is 0.00017 s⁻¹. Besides, the on-rate (kon) in [10] turned out to be 104000 M⁻¹ s⁻¹. In addition, the half-inhibitory concentration (IC50) in [11] is 1.74 nM.

B2: Antibody 055 (hybridoma antibody) (antibody, V domains shown)
VH: EVKLVESEGGLVQPGDSMKLSCTASGFTFSDYFMTWIRQVPEKGLEWIANVNYDGRSTYYLDSLKSRFIISRDNANNILYLQMSSLKSEDTATYYCAREGSQTPLYAVDYWGQGTSVTVSS
VL: DIVMTQSQKFMSTTVGDRVNITCKASQNVGTAVAWYQQKPGQSPKLLIYLASNRYTGVPDRFTGSGSGTDFTLTVSDMRSEDLADYFCQQYSIYPFTFGSGTKLEIK
notes: mouse hybridoma antibody
For the molecule B2, the EC50 came out at 0.04 nM in test [12], 0.04 nM in test [13] and 1.2 nM in [7]. For the same molecule, the “MFI at 10 nM” value in test [8] came out at 4670 MFI. For the same molecule, the binding result in test [9] is “no binding (tested: 100 nM)”. Besides, the “% Competition” value in test [14] was -3%; in [15], -8%; in [16] it was 2%; in test [17], -1%; in test [18] it was 8%; in test [19], 7%. The “% Competition” value was 91% in test [20]; 8% in [21]; 3% in [22]; -10% in [23]; 45% in [24]; 14% in test [25].
